Patent publication US20210393777A1 (SHANGHAI JUNSHI BIOSCIENCES, published 2021)
Blank lines part the entries; values can stand above or below the binder they belong to.

Biological target: T1, human PCSK9 (human, UniProt Q8NBP7 31-692)
T1 construct: Soluble analyte in the ForteBio assay; also called human proprotein convertase subtilisin/kexin type 9
Experiment: ForteBio BLI, biotinylated antibody on streptavidin probes, PCSK9 in solution
Description: ForteBio affinity assays were implemented according to the prior art. […] After the buffer exchange, the protein content was measured by the absorbance at 280 nm, and the concentration was adjusted to 2 mg/mL. 2 mg of Sulfo-NHS-Biotin was equilibrated to room temperature and added to […] of ultrapure water to give a 10 mM Biotin stock solution. 1 mL of 2 mg/mL JS002 and evolocumab were transferred to a new EP tube, and 8 μL of biotin stock solution was added according to a ratio of protein:biotin=1:6. The mixture was well mixed and incubated at room temperature for 1-2 h. […] After the buffer exchange, the protein content was measured by the absorbance at 280 nm, and the concentration was adjusted to 1-2 mg/mL. The biotinylated protein was aliquoted in tubes at 0.1 mL per tube, and was stored at −80° C. with no more than 1 freeze-thaw. […] The affinity constant was calculated by the formula=koff/kₒₙ.

Kd: 0.651 nM
koff: 3.21e-05 s⁻¹
kon: 49200 M⁻¹ s⁻¹
B1: evolocumab (antibody, V domains shown)
VH: QVQLVQSGAEVKKPGASVKVSCKASGYTLTSYGISWVRQAPGQGLEWMGWVSFYNGNTNYAQKLQGRGTMTTDPSTSTAYMELRSLRSDDTAVYYCARGYGMDVWGQGTTVTVSS
VL: QSALTQPASVSGSPGQSITISCTGTSSDVGGYNSVSWYQQHPGKAPKLMIYEVSNRPSGVSNRFSGSKSGNTASLTISGLQAEDEADYYCNSYTSTSMVFGGGTKLTVL

Kd: 0.0215 nM
koff: 1.3e-06 s⁻¹
kon: 60200 M⁻¹ s⁻¹
B2: JS002 (antibody, human IgG4 S228P, kappa, V domains shown)
VH: QVQLQESGPGLVKPSQTLSLTCTVSGFSISSYGIHWIRQSPGKGLEWIGVIWRGGITDYNAPFMSRVTISKDNSKNQVSFKLSSVTAADTAVYYCANHRDWGQGTLVTVSS
VL: DIQMTQSPSSLSASVGDRVTITCQASQDINKYIDWYQHKPGKAPKLLIHYASTLQPGVPSRFSGSGSGRDYTFTISSLQPEDIATYYCLQYDDLWTFGQGTKVEIKR
notes: Full-length humanized antibody; In the ForteBio assay it was biotinylated with Sulfo-NHS-Biotin (protein:biotin 1:6) and held on streptavidin probes; Tested from various liquid formulations (no. 20, 28-31); also called recombinant humanized anti-PCSK9 monoclonal antibody; anti-PCSK9 antibody
